To fix the notation:
B1: wild-type MORC2 901-1032 with Trx-tag [human] / itself (parent)
chain: LSTNHETIDLLVQILRNCLRYFLPPSFPISKKQLSAMNSDELISFPLKEYFKQYEVGLQNLCNSYQSRADSRAKASEESLRTSERKLRETEEKLQKLRTNIVALLQKVQEDIDINTDDELDAYIEDLITKGD

We go through two variants from publication PMC13189624, “MORC2 mediates transcriptional regulation through liquid-liquid phase separation” (eLife, 2026).

The variants in this test derive from B1. The experiment in a line: static light-scattering (SLS) coupled to size-exclusion chromatography. Particulars: with itself; Trx tag (14 kDa) kept on constructs. On the technique in general: In gel filtration, larger molecules generally elute earlier.
For LSTNHETIDLQVQILRNCLRYFLPPSFPISKKQLSAMNSDELISFPLKEYFKQYEVGLQNLCNSYQSRADSRAKASEESLRTSERKLRETEEKLQKLRTNIVALLQKVQEDIDINTDDELDAYIEDLITKGD [chain 1 L11Q], the molecular mass was determined as 79.8 kDa. Then LSTNHETIDLLVQILRNCLRYQLPPSFPISKKQLSAMNSDELISFPLKEYFKQYEVGLQNLCNSYQSRADSRAKASEESLRTSERKLRETEEKLQKLRTNIVALLQKVQEDIDINTDDELDAYIEDLITKGD [chain 1 F22Q], with 113 kDa.
